# Measurements published in patent US20200283507A1 (US Dept. of Health and Human Services, published 2020).
# Changes are numbered by the printed parent chain.
# T1: Hu/NoV/GI.1/Norwalk/1968/U.S. VLP (human norovirus GI.1, UniProt Q83884 1-530 (Norovirus (strain entry), limits assumed))
# T1 construct: mature; full-length VP1 (ORF2) assembled as virus-like particle in baculovirus/Sf9; also called Norwalk VLP; NV
# T1 sequence (looked up): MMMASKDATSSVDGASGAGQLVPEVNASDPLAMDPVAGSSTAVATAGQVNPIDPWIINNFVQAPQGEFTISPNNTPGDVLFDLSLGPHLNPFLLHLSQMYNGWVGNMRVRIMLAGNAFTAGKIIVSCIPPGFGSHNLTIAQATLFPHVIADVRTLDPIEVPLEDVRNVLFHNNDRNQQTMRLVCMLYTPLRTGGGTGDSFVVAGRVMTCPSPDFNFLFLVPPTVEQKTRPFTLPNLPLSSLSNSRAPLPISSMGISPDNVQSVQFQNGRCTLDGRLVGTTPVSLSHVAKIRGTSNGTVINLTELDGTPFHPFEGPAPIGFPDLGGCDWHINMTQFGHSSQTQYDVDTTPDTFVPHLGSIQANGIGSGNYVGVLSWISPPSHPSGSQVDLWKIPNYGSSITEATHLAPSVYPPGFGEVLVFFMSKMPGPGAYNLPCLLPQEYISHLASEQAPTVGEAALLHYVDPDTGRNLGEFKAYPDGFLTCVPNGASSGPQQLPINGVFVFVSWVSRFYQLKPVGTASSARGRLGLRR
# B1: VHH 13.1 (VHH)
# VHH: QVKLQESGGGWVQAGGSLRLSCAASALTASITTMGWFRQTPEKEREFLAAINWTGDYKYYADSVKGRFTISRDNAKNTVDLQMNQLKPEDTAVYYCAASKIRNDIYLNDYTWYQYWGQGTQVTVSS
# notes: llama VHH, Norwalk library, subtractive biopanning; His6 tag; also called 13.2; clone 13
# B2: VHH 6.3 (VHH)
# VHH: QVQLQQSGGGLVQPGGSLRLSCAASGSIFSIHTMGWYRQAPGKQRELVTTITTGGTTNYADSVKGRFTISRDDAKNTVYLQMNNLKPEDTAVYYCYALIQTASTTWYRQYWGQGTQVTVSS
# notes: llama VHH, Norwalk (GI.1) library; also called clone 6.3
# B3: VHH 5.4 (VHH)
# VHH: QVQLQQSGGGLVQPGGSLRLSCVASESTVSINIMGWYRQAPGKQRELVATITTGGTTNYADSVKGRFTISRDNAKNTVYLQMNSLEPEDTAVYYCNLKRRDLQARFGGYWGQGTQVTVSS
# notes: llama VHH, MD2004 library; pHEN6, C-terminal His6 tag; also called clone 5.4
# B4: VHH 4.1 (VHH)
# VHH: B3 VHH with Q3K, V23A, V29I, I33T, M34L, K43N, S84N, E88G, A104S
# notes: llama VHH, MD2004 library; pHEN6, C-terminal His6 tag; also called clone 4.1
# B5: VHH 7.3 (VHH)
# VHH: QVKLQESGGGLVQPGGSLRLSCTASRSIFTRAMAWYRQAPGKQRELVAAIDSGDRTHYADSVKGRFTISRNNAKDTLYLQMNSLKSEDTAVYYCNANLGALLDYWGQGTQVTVSS
# notes: llama VHH, Norwalk library; pHEN6, C-terminal His6 tag; also called clone 7.3
# Experiments:
# [1] = molecular target: T1, Hu/NoV/GI.1/Norwalk/1968/U.S. VLP; experiment: VLP ELISA
# [2] = molecular target: T1, Hu/NoV/GI.1/Norwalk/1968/U.S. VLP; experiment: blockade ELISA: VLP binding to synthetic HBGA H1
# [3] = molecular target: T1, Hu/NoV/GI.1/Norwalk/1968/U.S. VLP; experiment: blockade ELISA: VLP binding to PGM type III
# Experimental: (§1) Pig Gastric Mucin Type III (PGM) (Sigma Chemicals) was used as a substrate for NoV VLP antibody-blockade assay as previously described. Briefly, PGM was resuspended in PBS at 5 mg/ml and coated onto 96 well U bottom polyvinyl plates Dynatech (Nunc, Thermo, USA) at 10 μg/ml in PBS for 4 hours. Plates were then blocked ON at 4° C. in 5% dry milk in 0.05% Tween₂₀-PBS. […] One hundred μl of VLPs-VHH mix were transferred to the PGM coated plates and incubated for 1 hour. Bound VLPs were detected by specific hyperimmune sera made in guinea pig, followed by anti-guinea pig IgG-HRP (KLP). ABTS/H₂O₂ was used as chromogen/substrate solution. All incubations were performed at room temperature and absorbance at 405 nm was measured. Mean % control binding, EC50 and criteria for determination of a blockade VHH were calculated as described above.
# [4] = molecular target: T1, Hu/NoV/GI.1/Norwalk/1968/U.S. VLP; experiment: cell-based or functional assay
# [5] = molecular target: T1, Hu/NoV/GI.1/Norwalk/1968/U.S. VLP; experiment: blockade ELISA: VLP binding to saliva Ly+
# Experimental: (§2) For this assay saliva positive for Ly antigen collected from a secretor individual was used. Saliva was boiled (95° C.) for 10 minutes immediately after collection, centrifuged for 5 minutes at 13000×g and the supernatants stored at −20° C. until used. ELISA 96 well U bottom polyvinyl plates Dynatech (Nunc, Thermo, EEUU) were coated with 100 μl/well of a 1/400 saliva dilution in 50 μM carbonate-bicarbonate buffer, pH 9.6. The plate was incubated overnight at 37° C. in a wet atmosphere. In parallel, serial two-fold dilutions of VHH starting from 8 ug/ml were mixed with 1.5 ug/ml of NoV VLP Norwalk and MD145 and incubated for 1h at 37° C. After 6 washes and a blocking step with 5% dry milk/0.05% Tween₂₀-PBS, 50 ul of each VHH-VLP mixture was transferred to the reaction plate, in duplicate. The assay was developed using a specific polyclonal antiserum made in guinea pig (1:10,000) followed by a peroxidase labeled anti-guinea pig IgG (1:2,000) and ABTS/H₂O₂ as substrate chromogen (KPL), 100 μl per well. Absorbance at 405 nm was measured. Mean % control binding, EC50 and criteria for determination of a blockade VHH were calculated as described above.
# [6] = molecular target: T2, Hu/NoV/GI.1/P7-587/2007/Stromstad/Sweden VLP (human norovirus GI.1); experiment: VLP ELISA
# T2 construct: mature; baculovirus VLP; VP2 may be present; also called Norovirus 2007
# [7] = molecular target: T2, Hu/NoV/GI.1/P7-587/2007/Stromstad/Sweden …; experiment: cell-based or functional assay
# [8] = molecular target: T3, Hu/NoV/GII.7/DC119/U.S. VLP (human norovirus GII.7); experiment: VLP ELISA
# T3 construct: mature; baculovirus VLP; VP2 may be present
# [9] = molecular target: T4, Hu/GII.6/Bethesda/2012/U.S. VLP (human norovirus GII.6); experiment: VLP ELISA
# T4 construct: mature; baculovirus VLP; VP2 may be present
# [10] = molecular target: T5, Hu/NoV/GII.4/CHDC4871/1977/U.S. VLP (human norovirus GII.4); experiment: VLP ELISA
# T5 construct: mature; baculovirus VLP; VP2 may be present
# [11] = molecular target: T6, Hu/NoV/GII.4/RockvilleD1/2012/U.S. VLP (human norovirus GII.4); experiment: VLP ELISA
# T6 construct: mature; baculovirus VLP; VP2 may be present
# [12] = molecular target: T7, Hu/NoV/GII.3/CHDC4031/1988/U.S. VLP (human norovirus GII.3); experiment: VLP ELISA
# T7 construct: mature; baculovirus VLP; VP2 may be present
# [13] = molecular target: T8, Hu/NoV/GII.1/Hawaii/1971/U.S. VLP (human norovirus GII.1); experiment: VLP ELISA
# T8 construct: mature; baculovirus VLP; VP2 may be present
# [14] = molecular target: T9, Hu/NoV/GII.2/Henryton/1971/U.S. VLP (human norovirus GII.2); experiment: VLP ELISA
# T9 construct: mature; baculovirus VLP; VP2 may be present
# [15] = molecular target: T10, Hu/NoV/GII.4/HS-191/2001/U.S. VLP (human norovirus GII.4); experiment: VLP ELISA
# T10 construct: mature; baculovirus VLP; VP2 may be present
# [16] = molecular target: T11, Hu/NoV/GII.4/MD145-12/1997/U.S. VLP (human norovirus GII.4); experiment: VLP ELISA
# T11 construct: mature; baculovirus VLP; VP2 may be present
# [17] = molecular target: T12, Hu/NoV/GII.4/MD2004/2004/U.S. VLP (human norovirus GII.4); experiment: VLP ELISA
# T12 construct: mature; baculovirus VLP; VP2 may be present; also called MD2004 VLP
# [18] = molecular target: T13, Hu/NoV/Snow Mountain/GII.2/U.S. VLP (human norovirus GII.2); experiment: VLP ELISA
# T13 construct: mature; baculovirus VLP; VP2 may be present
# [19] = molecular target: T12, Hu/NoV/GII.4/MD2004/2004/U.S. VLP; experiment: blockade ELISA: VLP binding to PGM type III
# Experimental: as §1
# [20] = molecular target: T11, Hu/NoV/GII.4/MD145-12/1997/U.S. VLP; experiment: cell-based or functional assay
# [21] = molecular target: T12, Hu/NoV/GII.4/MD2004/2004/U.S. VLP; experiment: cell-based or functional assay
# [22] = molecular target: T11, Hu/NoV/GII.4/MD145-12/1997/U.S. VLP; experiment: blockade ELISA: VLP binding to saliva Ly+
# Experimental: as §2
# [23] = molecular target: T11, Hu/NoV/GII.4/MD145-12/1997/U.S. VLP; experiment: blockade ELISA: VLP binding to synthetic HBGA H3
# [24] = molecular target: T14, Hu/NoV/GI.3/Desert-Shield395/1990/U.S. VLP (human norovirus GI.3); experiment: VLP ELISA
# T14 construct: mature; baculovirus VLP; VP2 may be present
binder,measurement,setting,value
B1,minimum concentration of VHH able to recognize 100 ng of VLP,[1],2 ng/well
same,EC50,[2],2.03 µg/mL
same,EC50,[3],1.29 µg/mL
same,"HAI titer, 0 Rh- RBC",[4],0.19 µg/mL
same,EC50,[5],2.27 µg/mL
B2,minimum concentration of VHH able to recognize 100 ng of VLP,[6],0.5 ng/well
same,minimum concentration of VHH able to recognize 100 ng of VLP,[1],0.5 ng/well
same,EC50,[2],1.01 µg/mL
same,EC50,[3],0.661 µg/mL
same,"HAI titer, 0 Rh- RBC",[7],0.05 µg/mL
same,"HAI titer, 0 Rh- RBC",[4],0.19 µg/mL
same,EC50,[5],2.04 µg/mL
B3,minimum concentration of VHH able to recognize 100 ng of VLP,[8],0.5 ng/well
same,minimum concentration of VHH able to recognize 100 ng of VLP,[9],1 ng/well
same,minimum concentration of VHH able to recognize 100 ng of VLP,[10],0.5 ng/well
same,minimum concentration of VHH able to recognize 100 ng of VLP,[11],0.5 ng/well
same,minimum concentration of VHH able to recognize 100 ng of VLP,[12],0.5 ng/well
same,minimum concentration of VHH able to recognize 100 ng of VLP,[13],1 ng/well
same,minimum concentration of VHH able to recognize 100 ng of VLP,[14],2 ng/well
same,minimum concentration of VHH able to recognize 100 ng of VLP,[15],0.25 ng/well
same,minimum concentration of VHH able to recognize 100 ng of VLP,[16],4 ng/well
same,minimum concentration of VHH able to recognize 100 ng of VLP,[17],1 ng/well
same,minimum concentration of VHH able to recognize 100 ng of VLP,[18],2 ng/well
same,EC50,[19],2.02 µg/mL
same,"HAI titer, B Rh+ RBC",[20],0.39 µg/mL
same,"HAI titer, B Rh+ RBC",[21],0.39 µg/mL
same,EC50,[22],1.27 µg/mL
same,EC50,[23],0.718 µg/mL
B4,minimum concentration of VHH able to recognize 100 ng of VLP,[8],0.5 ng/well
same,minimum concentration of VHH able to recognize 100 ng of VLP,[9],2 ng/well
same,minimum concentration of VHH able to recognize 100 ng of VLP,[10],0.5 ng/well
same,minimum concentration of VHH able to recognize 100 ng of VLP,[11],1 ng/well
same,minimum concentration of VHH able to recognize 100 ng of VLP,[12],2 ng/well
same,minimum concentration of VHH able to recognize 100 ng of VLP,[13],1 ng/well
same,minimum concentration of VHH able to recognize 100 ng of VLP,[14],1 ng/well
same,minimum concentration of VHH able to recognize 100 ng of VLP,[15],0.5 ng/well
same,minimum concentration of VHH able to recognize 100 ng of VLP,[16],2 ng/well
same,minimum concentration of VHH able to recognize 100 ng of VLP,[17],2 ng/well
same,minimum concentration of VHH able to recognize 100 ng of VLP,[18],2 ng/well
same,EC50,[19],2.91 µg/mL
same,"HAI titer, B Rh+ RBC",[20],0.39 µg/mL
same,"HAI titer, B Rh+ RBC",[21],0.19 µg/mL
same,EC50,[22],1.38 µg/mL
same,EC50,[23],0.712 µg/mL
B5,minimum concentration of VHH able to recognize 100 ng of VLP,[6],0.5 ng/well
same,minimum concentration of VHH able to recognize 100 ng of VLP,[24],0.5 ng/well
same,minimum concentration of VHH able to recognize 100 ng of VLP,[1],0.5 ng/well
same,"HAI titer, 0 Rh- RBC",[7],0.05 µg/mL
same,"HAI titer, 0 Rh- RBC",[4],0.39 µg/mL
